The source of these data is the RNAGym collection of RNA variant scans (doi:10.1093/molbev/msab373).

First the molecules themselves.
B1: Azoarcus group I ribozyme (parent)
chain: GUGCCUUGCGCCGGGAAACCACGCAAGGGAUGGUGUCAAAUUCGGCGAAACCUAAGCGCCCGCCCGGGCGUAUGGCAACGCCGAGCCAAGCUUCGGCGCCUGCGCCGAUGAAGGUGUAGAGACUAGACGGCACCCACCUAAGGCAAACGCUAUGGUGAAGGCAUAGUCCAGGGAGUGGCGAAAGUCACACAAACCGG

Variants of B1 are the subject of the data set. Briefly: reverse-splicing fitness (ratio to wild type); higher = more active; in vitro selection; Mg2+ level not given. Put shortly:
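An in vitro group I ribozyme library with randomized positions was T7-transcribed and gel-purified. In triplicate, 10 pmol RNA in EPPS pH 7.5 was reacted with 50 pmoles of a 30-nt RNA substrate for 1 h at 37 °C across several added MgCl2 levels (1–48 mM), then stopped with EDTA. Products were reverse transcribed from a substrate-complementary primer, PCR-amplified and sequenced (HiSeq 4000). Fitness is a variant's read proportion after selection over that before, normalised to wild type.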
For the variant C82A A111C A120U A145G C150G C169U U176G, the reverse-splicing fitness amounted to 0.00484.

For C82A A111C A120U A145G C150G C169U U176C, the reverse-splicing fitness came to 0.00842.

For C82A A111C A120U A145G C150G C169U U176A, the reverse-splicing fitness came to 0.00855.

Turning to C82A A111C A120U C150G, the reverse-splicing fitness came out at 0.00737.

C82A A111C A120U C150A: the reverse-splicing fitness was 0.00696.

For the variant C82A A111C A120U C150U, the reverse-splicing fitness was 0.0167.

C82A A111C A120U A145U C150U C169U U176A: the reverse-splicing fitness came out at 0.00402.

Consider C82A A111C A120U A145U C150U C169U U176G, for which the reverse-splicing fitness is 0.00288.

Consider C82A A111C A120U A145U C150U C169U U176C, for which the reverse-splicing fitness came out at 0.00348.

In the case of C82A A111C A120U A145G C169A U176C, the reverse-splicing fitness was determined as 0.00466.

For the variant C82A A111C A120U A145G C169A U176G, the reverse-splicing fitness worked out at 0.00219.

As for C82A A111C A120U A145G C169A U176A, the reverse-splicing fitness came to 0.00438.

For the variant C82A A111C A120U A145C C150G C169U U176C, the reverse-splicing fitness worked out at 0.00347.

Take C82A A111C A120U A145C C150G C169U U176A: the reverse-splicing fitness was 0.00398.

In the case of C82A A111C A120U A145C C150G C169U U176G, the reverse-splicing fitness is 0.00285.

In the case of C82A A111C A120U A145U C150A C169U U176G, the reverse-splicing fitness came to 0.00282.

C82A A111C A120U A145U C150A C169U U176A: the reverse-splicing fitness came to 0.00378.

With C82A A111C A120U A145U C150A C169U U176C, the reverse-splicing fitness is 0.00301.

On to C82A A111C A120U A145U C150G C169A U176A, for which the reverse-splicing fitness was determined as 0.00379.

As for C82A A111C A120U A145U C150G C169A U176G, the reverse-splicing fitness worked out at 0.00338.

With C82A A111C A120U A145U C150G C169A U176C, the reverse-splicing fitness was 0.00377.

Consider C82A A111C A120U A145C C150G C169G U176A, for which the reverse-splicing fitness stood at 0.00291.

C82A A111C A120U A145C C150G C169G U176C: the reverse-splicing fitness was 0.00325.

For C82A A111C A120U A145C C150G C169G U176G, the reverse-splicing fitness worked out at 0.00318.

As for C82A A111C A120U A145C C150A C169G U176G, the reverse-splicing fitness was 0.00211.

With C82A A111C A120U A145C C150A C169G U176A, the reverse-splicing fitness was determined as 0.0036.

Turning to C82A A111C A120U A145C C150A C169G U176C, the reverse-splicing fitness came out at 0.00345.

With C82A A111C A120U A145G C150U C169U, the reverse-splicing fitness came out at 0.00603.

As for C82A A111C A120U A145G C150U C169A, the reverse-splicing fitness is 0.00691.

Consider C82A A111C A120U A145G C150U C169G, for which the reverse-splicing fitness was found to be 0.0065.

Consider C82A A111C A120U A145U C169G U176A, for which the reverse-splicing fitness is 0.00336.

Consider C82A A111C A120U A145U C169G U176G, for which the reverse-splicing fitness was found to be 0.00259.

For C82A A111C A120U A145U C169G U176C, the reverse-splicing fitness worked out at 0.00308.

On to C82A A111C A120U A145C C150A U176C, for which the reverse-splicing fitness came to 0.00528.

In the case of C82A A111C A120U A145C C150A U176G, the reverse-splicing fitness is 0.00289.

On to C82A A111C A120U A145C C150A U176A, for which the reverse-splicing fitness was found to be 0.00393.

Turning to C82A A111C A120U A145U C150U C169G U176C, the reverse-splicing fitness amounted to 0.00338.

Consider C82A A111C A120U A145U C150U C169G U176A, for which the reverse-splicing fitness turned out to be 0.00315.

On to C82A A111C A120U A145U C150U C169G U176G, for which the reverse-splicing fitness came out at 0.00247.

For the variant C82A A111C A120G C150U C169A U176A, the reverse-splicing fitness came to 0.013.

For the variant C82A A111C A120G C150U C169A U176C, the reverse-splicing fitness came to 0.0139.

In the case of C82A A111C A120G C150U C169A U176G, the reverse-splicing fitness was 0.00621.

For C82A A111C A120G C150A C169A, the reverse-splicing fitness was found to be 0.00919.

In the case of C82A A111C A120G C150A C169G, the reverse-splicing fitness is 0.00885.

Take C82A A111C A120G C150A C169U: the reverse-splicing fitness amounted to 0.00723.

As for C82A A111C A120U C150A U176A, the reverse-splicing fitness was 0.00497.

C82A A111C A120U C150A U176C: the reverse-splicing fitness worked out at 0.00738.

In the case of C82A A111C A120U C150A U176G, the reverse-splicing fitness was determined as 0.00369.

Turning to C82A A111C A120U C150G U176G, the reverse-splicing fitness worked out at 0.00249.

Take C82A A111C A120U C150G U176C: the reverse-splicing fitness is 0.00623.

C82A A111C A120U C150G U176A: the reverse-splicing fitness is 0.00392.

For the variant C82A A111C A120U A145C C150U C169A U176C, the reverse-splicing fitness was 0.00378.

In the case of C82A A111C A120U A145C C150U C169A U176A, the reverse-splicing fitness was found to be 0.00309.

Consider C82A A111C A120U A145C C150U C169A U176G, for which the reverse-splicing fitness amounted to 0.00233.

Turning to C82A A111C A120G C150A C169A U176A, the reverse-splicing fitness was 0.0182.

Consider C82A A111C A120G C150A C169A U176C, for which the reverse-splicing fitness was 0.0168.

With C82A A111C A120G C150A C169A U176G, the reverse-splicing fitness was found to be 0.00729.

Consider C82A A111C A120G A145U U176C, for which the reverse-splicing fitness amounted to 0.0197.

Consider C82A A111C A120G A145U U176A, for which the reverse-splicing fitness was 0.0134.

Take C82A A111C A120G A145U U176G: the reverse-splicing fitness came out at 0.00466.

As for C82A A111C A120G C150G U176A, the reverse-splicing fitness amounted to 0.00868.

In the case of C82A A111C A120G C150G U176C, the reverse-splicing fitness came to 0.0155.

With C82A A111C A120G C150G U176G, the reverse-splicing fitness was determined as 0.00292.

On to C82A A111C A120U A145C C169U U176G, for which the reverse-splicing fitness was 0.00232.

On to C82A A111C A120U A145C C169U U176C, for which the reverse-splicing fitness is 0.00326.

For C82A A111C A120U A145C C169U U176A, the reverse-splicing fitness amounted to 0.00272.

For C82A A111C A120G C150U U176G, the reverse-splicing fitness turned out to be 0.00673.

Regarding C82A A111C A120G C150U U176C, the reverse-splicing fitness amounted to 0.02.

Consider C82A A111C A120G C150U U176A, for which the reverse-splicing fitness is 0.0116.

C82A A111C A120G C169A: the reverse-splicing fitness worked out at 0.0095.

For C82A A111C A120G C169U, the reverse-splicing fitness came out at 0.00841.

For C82A A111C A120G C169G, the reverse-splicing fitness came out at 0.00872.

For the variant C82A A111C A120G C150G C169G U176C, the reverse-splicing fitness came out at 0.00493.

For C82A A111C A120G C150G C169G U176G, the reverse-splicing fitness is 0.00538.

For the variant C82A A111C A120G C150G C169G U176A, the reverse-splicing fitness is 0.00664.

Take C82A A111C A120U A145G C150G U176C: the reverse-splicing fitness is 0.00851.

In the case of C82A A111C A120U A145G C150G U176G, the reverse-splicing fitness is 0.00449.

Consider C82A A111C A120U A145G C150G U176A, for which the reverse-splicing fitness is 0.00763.

For the variant C82A A111C A120U A145U C150A U176G, the reverse-splicing fitness was 0.00301.

Take C82A A111C A120U A145U C150A U176C: the reverse-splicing fitness worked out at 0.0062.

Consider C82A A111C A120U A145U C150A U176A, for which the reverse-splicing fitness came out at 0.00477.

Regarding C82A A111C A120G C150U C169G, the reverse-splicing fitness was determined as 0.00891.

For the variant C82A A111C A120G C150U C169A, the reverse-splicing fitness worked out at 0.00973.

Turning to C82A A111C A120G C150U C169U, the reverse-splicing fitness turned out to be 0.00806.
